Data from paper PMC6857588.

Target: filamentous actin (F-actin) (not stated (human platelet or rabbit muscle actin)) (UniProt P68135)
Test: co-sedimentation; 0.5 µM NMY-2S1 incubated with different amounts of actin, 150,000 g for 1.5 h at room temperature; percent of NMY-2 S1 in the pellet fitted with a one-site specific binding model

| Kd | Substance |
| --- | --- |
| 2460 nM | NMY-2(R252A)S1 (NMY-2 S1 fragment R252A bound to MLC-4 and MLC-5) (from UniProt G5EBY3 1-874; Q09510 1-172; Q9XVI9 1-142) (complex) |
| 660 nM | NMY-2(S250A)S1 (NMY-2 S1 fragment S250A bound to MLC-4 and MLC-5) (from UniProt G5EBY3 1-874; Q09510 1-172; Q9XVI9 1-142) (complex) |
| 62 nM | NMY-2(S251A)S1 (NMY-2 S1 fragment S251A bound to MLC-4 and MLC-5) (from UniProt G5EBY3 1-874; Q09510 1-172; Q9XVI9 1-142) (complex) |
| 660 nM | wild-type NMY-2S1 (NMY-2 S1 fragment bound to MLC-4 and MLC-5) (from UniProt G5EBY3 1-874; Q09510 1-172; Q9XVI9 1-142) (complex) |
